Source: PMC5118412 (Cell Discovery, 2016)

Legend:
[1] = test system: GLP-1R; conditions: covalently attaches to C347; ref [34], [35]; cited from earlier work
Excerpt: GPCRs have been viewed as ‘allosteric machines’ [33] because many allosteric modulators have been identified binding outside the orthosteric pocket of the physiological activators to modulate endogenous agonist binding and function. […] Although mutating C347 to positively charged lysine or arginine ...

[2] = target: human GLP-1R stably expressed in AD293 cells (GLP-1R/NlucP-293 cells) (human) (UniProt P43220)
[3] = target: GLP-1 Δ4-5xGSA-GLP-1R (24–429)–TEV site–tTA (UniProt P43220)
[4] = target: GLP-1 Δ5-5xGSA-GLP-1R (24–429)–TEV site–tTA (UniProt P43220)
[5] = target: GLP-1-5xGSA-GLP-1R (24–429)–TEV site–tTA (UniProt P43220)
[6] = target: EX4-5xGSA-GLP-1R (24–429)–TEV site–tTA (Gila monster | human) (UniProt P43220)

Compound: CC[S+]([O-])c1nc(-c2cccc(OCc3ccccc3)c2)cc(C(F)(F)F)n1 (stereo not drawn) [BETP, 4-(3-(Benzyloxy)phenyl)-2-ethylsulfinyl-6 (trifluoromethyl)pyrimidine]
- allosteric modulation of GLP-1R [1]: positive allosteric modulator

Compound: GLP-1(9–37) (peptide)
- cAMP signal (CRE-NanoLuc luciferase reporter) in GLP-1R/NlucP-293 cells; potency (EC50) of full-length GLP-1 over that of the truncated GLP-1 [2]: 1000 fold

Compound: ß-arrestin 1 fused with TEV protease (from UniProt P49407 1-418) (natural protein)
- Tango assay (tTA/TRE-luc reporter) in HTL cells, relative to GLP-1-5GSA-FL (Δ0) (% of GLP-1-5GSA-FL (Δ0)) [3]: 50
- Tango assay (tTA/TRE-luc reporter) in HTL cells, relative to GLP-1-5GSA-FL (Δ0) (% of GLP-1-5GSA-FL (Δ0)) [4]: 50
- Tango assay (tTA/TRE-luc reporter) in HTL cells; arrestin recruiting signal against the unfused receptor with 1 μM hormone [5]: 150
- Tango assay (tTA/TRE-luc reporter) in HTL cells; arrestin recruiting signal against the unfused receptor with 1 μM hormone [6]: 150
